Sequences and labels used below:
B1: Cholyl-penta-alanine (peptide)
peptide: Cholyl-AAAAA-OH
SMILES: C[C@H](NC(=O)[C@H](C)NC(=O)[C@H](C)NC(=O)[C@H](C)NC(=O)[C@H](C)NC(=O)CC[C@@H](C)[C@H]1CC[C@H]2[C@@H]3[C@H](O)C[C@@H]4C[C@H](O)CC[C@]4(C)[C@H]3C[C@H](O)[C@]12C)C(=O)O
B2: cholyl-Aβ16-20 (Phe19->Ala) (peptide)
peptide: Cholyl-KLVAF-OH
SMILES: CC(C)C[C@H](NC(=O)[C@H](CCCCN)NC(=O)CC[C@@H](C)[C@H]1CC[C@H]2[C@@H]3[C@H](O)C[C@@H]4C[C@H](O)CC[C@]4(C)[C@H]3C[C@H](O)[C@]12C)C(=O)N[C@H](C(=O)N[C@@H](C)C(=O)N[C@@H](Cc1ccccc1)C(=O)O)C(C)C
B3: cholyl-Aβ15-20 (peptide)
peptide: Cholyl-QKLVFF-OH
SMILES: CC(C)C[C@H](NC(=O)[C@H](CCCCN)NC(=O)[C@H](CCC(N)=O)NC(=O)CC[C@@H](C)[C@H]1CC[C@H]2[C@@H]3[C@H](O)C[C@@H]4C[C@H](O)CC[C@]4(C)[C@H]3C[C@H](O)[C@]12C)C(=O)N[C@H](C(=O)N[C@@H](Cc1ccccc1)C(=O)N[C@@H](Cc1ccccc1)C(=O)O)C(C)C
B4: cholyl-Aβ14-20 (peptide)
peptide: Cholyl-HQKLVFF-OH
SMILES: CC(C)C[C@H](NC(=O)[C@H](CCCCN)NC(=O)[C@H](CCC(N)=O)NC(=O)[C@H](Cc1c[nH]cn1)NC(=O)CC[C@@H](C)[C@H]1CC[C@H]2[C@@H]3[C@H](O)C[C@@H]4C[C@H](O)CC[C@]4(C)[C@H]3C[C@H](O)[C@]12C)C(=O)N[C@H](C(=O)N[C@@H](Cc1ccccc1)C(=O)N[C@@H](Cc1ccccc1)C(=O)O)C(C)C
B5: cholyl-Aβ6-10-amide (peptide)
peptide: Cholyl-HDSGY-NH2
SMILES: C[C@H](CCC(=O)N[C@@H](Cc1c[nH]cn1)C(=O)N[C@@H](CC(=O)O)C(=O)N[C@@H](CO)C(=O)NCC(=O)N[C@@H](Cc1ccc(O)cc1)C(N)=O)[C@H]1CC[C@H]2[C@@H]3[C@H](O)C[C@@H]4C[C@H](O)CC[C@]4(C)[C@H]3C[C@H](O)[C@]12C
B6: cholyl-Aβ6-17-amide (peptide)
peptide: Cholyl-HDSGYEVHHQKL-NH2
SMILES: CC(C)C[C@H](NC(=O)[C@H](CCCCN)NC(=O)[C@H](CCC(N)=O)NC(=O)[C@H](Cc1c[nH]cn1)NC(=O)[C@H](Cc1c[nH]cn1)NC(=O)[C@@H](NC(=O)[C@H](CCC(=O)O)NC(=O)[C@H](Cc1ccc(O)cc1)NC(=O)CNC(=O)[C@H](CO)NC(=O)[C@H](CC(=O)O)NC(=O)[C@H](Cc1c[nH]cn1)NC(=O)CC[C@@H](C)[C@H]1CC[C@H]2[C@@H]3[C@H](O)C[C@@H]4C[C@H](O)CC[C@]4(C)[C@H]3C[C@H](O)[C@]12C)C(C)C)C(N)=O
B7: cholyl-Aβ6-20-amide (peptide)
peptide: Cholyl-HDSGYEVHHQKLVFF-NH2
SMILES: CC(C)C[C@H](NC(=O)[C@H](CCCCN)NC(=O)[C@H](CCC(N)=O)NC(=O)[C@H](Cc1c[nH]cn1)NC(=O)[C@H](Cc1c[nH]cn1)NC(=O)[C@@H](NC(=O)[C@H](CCC(=O)O)NC(=O)[C@H](Cc1ccc(O)cc1)NC(=O)CNC(=O)[C@H](CO)NC(=O)[C@H](CC(=O)O)NC(=O)[C@H](Cc1c[nH]cn1)NC(=O)CC[C@@H](C)[C@H]1CC[C@H]2[C@@H]3[C@H](O)C[C@@H]4C[C@H](O)CC[C@]4(C)[C@H]3C[C@H](O)[C@]12C)C(C)C)C(=O)N[C@H](C(=O)N[C@@H](Cc1ccccc1)C(=O)N[C@@H](Cc1ccccc1)C(N)=O)C(C)C
B8: cholyl-Aβ6-14-amide (peptide)
peptide: Cholyl-HDSGYEVHH-NH2
SMILES: CC(C)[C@H](NC(=O)[C@H](CCC(=O)O)NC(=O)[C@H](Cc1ccc(O)cc1)NC(=O)CNC(=O)[C@H](CO)NC(=O)[C@H](CC(=O)O)NC(=O)[C@H](Cc1c[nH]cn1)NC(=O)CC[C@@H](C)[C@H]1CC[C@H]2[C@@H]3[C@H](O)C[C@@H]4C[C@H](O)CC[C@]4(C)[C@H]3C[C@H](O)[C@]12C)C(=O)N[C@@H](Cc1c[nH]cn1)C(=O)N[C@@H](Cc1c[nH]cn1)C(N)=O
B9: cholyl-Aβ6-19-amide (PPI-321 as printed in Table III) (peptide)
peptide: Cholyl-HDSGYEVHHQKLVF-NH2
SMILES: CC(C)C[C@H](NC(=O)[C@H](CCCCN)NC(=O)[C@H](CCC(N)=O)NC(=O)[C@H](Cc1c[nH]cn1)NC(=O)[C@H](Cc1c[nH]cn1)NC(=O)[C@@H](NC(=O)[C@H](CCC(=O)O)NC(=O)[C@H](Cc1ccc(O)cc1)NC(=O)CNC(=O)[C@H](CO)NC(=O)[C@H](CC(=O)O)NC(=O)[C@H](Cc1c[nH]cn1)NC(=O)CC[C@@H](C)[C@H]1CC[C@H]2[C@@H]3[C@H](O)C[C@@H]4C[C@H](O)CC[C@]4(C)[C@H]3C[C@H](O)[C@]12C)C(C)C)C(=O)N[C@H](C(=O)N[C@@H](Cc1ccccc1)C(N)=O)C(C)C

Ends that are not written are not given here. * marks the point of attachment. Cholyl = C[C@H](CCC(=O)*)[C@H]1CC[C@H]2[C@@H]3[C@H](O)C[C@@H]4C[C@H](O)CC[C@]4(C)[C@H]3C[C@H](O)[C@]12C

Here are results for 18 molecules from patent publication US7658917 (PRAECIS PHARMACEUTICALS, dated 2010).

The first test addresses natural β-amyloid peptide β-AP1-40 (human). The experiment in a line: cell-based or functional assay.
As for Cholyl-KLVFF-NH2 [cholyl-Aβ16-20-amide], the “% Inhibition of Plateau; nucleation assay; 10 mole %” value (“% Inhibition of Plateau … 10 mole %” for short) was approximately 0%, the “Fold Increase in Lag Time; nucleation assay; 10 mole %” value (from here on “Fold Increase in Lag Time … 10 mole %”) amounted to 2.7 fold and the “Fold Increase in Lag Time; nucleation assay; 33 mole %” value (from here on “Fold Increase in Lag Time … 33 mole %”) worked out at 5.6 fold.

Turning to Cholyl-KLVFF-OH [cholyl-Aβ16-20], the “% Inhibition of Plateau … 10 mole %” value is 40%, the “% Inhibition of Plateau; nucleation assay; 100 mole %” value (“% Inhibition of Plateau … 100 mole %” below) turned out to be 100%, the “Fold Increase in Lag Time … 10 mole %” value is 2.4 fold and the “Fold Increase in Lag Time; nucleation assay; 100 mole %” value (from here on “Fold Increase in Lag Time … 100 mole %”) is more than 5 fold.

As for Cholyl-HHQKLVFF [cholyl-Aβ13-20], the “% Inhibition of Plateau … 10 mole %” value was found to be 57% and the “Fold Increase in Lag Time … 10 mole %” value is 2.2 fold.

In the case of B1, the “% Inhibition of Plateau … 100 mole %” value is approximately 0% and the “Fold Increase in Lag Time … 100 mole %” value is approximately 1 fold.

As to Cholyl-HDSGYEVHHQKLVFF [cholyl-Aβ6-20], the “% Inhibition of Plateau … 10 mole %” value was 43% and the “Fold Increase in Lag Time … 10 mole %” value came to 2 fold.

As for B2, the “% Inhibition of Plateau … 100 mole %” value came to 73% and the “Fold Increase in Lag Time … 100 mole %” value was determined as 2.6 fold.

Take H-KLVFF-OH [unmodified Aβ16-20]: the “% Inhibition of Plateau … 100 mole %” value was approximately 0% and the “Fold Increase in Lag Time … 100 mole %” value is approximately 1 fold.

For the molecule B3, the “% Inhibition of Plateau … 10 mole %” value was approximately 0%, the “% Inhibition of Plateau … 100 mole %” value was found to be 100%, the “Fold Increase in Lag Time … 10 mole %” value came to 2.1 fold and the “Fold Increase in Lag Time … 33 mole %” value came out at 2.6 fold. For the same molecule, the “Fold Increase in Lag Time … 100 mole %” value was more than 5 fold.

A further test shares this target. The experiment in a line: cell-based or functional assay. This is another data set of the same source.
Target sequence in this assay (peptide, as listed by the source): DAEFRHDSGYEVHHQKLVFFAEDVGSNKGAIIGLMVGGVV
Cholyl-HDSGYEVHHQKLVFF [cholyl-Aβ6-20]: the “% Inhibition of Plateau … 100 mole %” value was found to be 100% and the “Fold Increase in Lag Time … 100 mole %” value was more than 4.5 fold.

The next test has the same target. Kind of test: cell-based or functional assay. The source holds these as a separate data set.
On to KLVFFAEDVGSNKGA [unmodified Aβ16-30], for which the “% Inhibition of Plateau … 100 mole %” value came to 100% and the “Fold Increase in Lag Time … 100 mole %” value was more than 4.5 fold.

For EVHHQKLVFFAEDVG [unmodified Aβ11-25], the “% Inhibition of Plateau … 100 mole %” value was 47% and the “Fold Increase in Lag Time … 100 mole %” value is approximately 1 fold.

Turning to HDSGYEVHHQKLVFF [unmodified Aβ6-20], the “% Inhibition of Plateau … 100 mole %” value came to 76% and the “Fold Increase in Lag Time … 100 mole %” value came out at 1.66 fold.

For another test the target is unchanged. The experiment in a line: cell-based or functional assay. This is another data set of the same source.
Target sequence in this assay (peptide, as listed by the source): as above
Turning to Cholyl-KLVFF-NH2 [cholyl-Aβ16-20-amide], the “% Iext'n; seeded extension assay; 25 mole %” value (“% Iext'n” for short) was found to be 52%, the “% Inucl'n; nucleation assay; 100 mole %” value amounted to 70% and the “ΔLag; nucleation assay; 100 mole %” value came to 5.4 ratio.

For Cholyl-KLVFF-OH [cholyl-Aβ16-20], the “% Iext'n” value came to 11%, the “% Inucl'n; nucleation assay; 100 mole %” value was 72% and the “ΔLag; nucleation assay; 100 mole %” value came out at 1.8 ratio.

As to B4, the “% Inucl'n; nucleation assay; 33 mole %” value was determined as 70% and the “ΔLag; nucleation assay; 33 mole %” value is 2 ratio.

On to B1, for which the “% Iext'n” value was found to be 0%, the “% Inucl'n; nucleation assay; 100 mole %” value was -7% and the “ΔLag; nucleation assay; 100 mole %” value is 0.8 ratio.

Turning to B5, the “% Inucl'n; nucleation assay; 100 mole %” value was -18% and the “ΔLag; nucleation assay; 100 mole %” value was 1.1 ratio.

As for B2, the “% Iext'n” value was found to be 31%, the “% Inucl'n; nucleation assay; 100 mole %” value amounted to 73% and the “ΔLag; nucleation assay; 100 mole %” value turned out to be 2.6 ratio.

Turning to H-KLVFF-OH [unmodified Aβ16-20], the “% Iext'n” value is 8%, the “% Inucl'n; nucleation assay; 100 mole %” value came to 0% and the “ΔLag; nucleation assay; 100 mole %” value was 1.1 ratio.

On to B3, for which the “% Iext'n” value was determined as 56%, the “% Inucl'n; nucleation assay; 100 mole %” value stood at 100% and the “ΔLag; nucleation assay; 100 mole %” value was more than 5 ratio.

A further test has the same target. The experiment in a line: cell-based or functional assay. This is another data set of the same source.
As for Cholyl-KLVFF-OH [cholyl-Aβ16-20], the “Fold Increase in Lag Time; nucleation assay; 38 mole %” value came out at 3.4 fold.

Take B6: the “% Inhibition of Plateau; nucleation assay; 33 mole %” value (shortened to “% Inhibition of Plateau … 33 mole %”) is approximately 0% and the “Fold Increase in Lag Time … 33 mole %” value was 1.8 fold.

With Cholyl-HHQKLVFF [cholyl-Aβ13-20], the “% Inhibition of Plateau … 33 mole %” value is approximately 0% and the “Fold Increase in Lag Time … 33 mole %” value stood at 2.6 fold.

As for B4, the “% Inhibition of Plateau … 33 mole %” value was 49% and the “Fold Increase in Lag Time … 33 mole %” value is 2 fold.

With B5, the “% Inhibition of Plateau … 33 mole %” value is 13% and the “Fold Increase in Lag Time … 33 mole %” value is 1.1 fold.

For Cholyl-HDSGYEVHHQKLVFF [cholyl-Aβ6-20], the “% Inhibition of Plateau … 100 mole %” value was found to be 100%, the “Fold Increase in Lag Time … 10 mole %” value was determined as 2 fold and the “Fold Increase in Lag Time … 100 mole %” value is more than 4.5 fold.

For the molecule B7, the “% Inhibition of Plateau … 33 mole %” value was approximately 0% and the “Fold Increase in Lag Time … 33 mole %” value turned out to be 1.8 fold.

Regarding Cholyl-DSGYEVHHQKLVFF [cholyl-Aβ7-20], the “% Inhibition of Plateau … 33 mole %” value is approximately 0%, the “% Inhibition of Plateau … 100 mole %” value amounted to 100%, the “Fold Increase in Lag Time … 33 mole %” value is 2 fold and the “Fold Increase in Lag Time … 100 mole %” value was more than 4.5 fold.

For the molecule B8, the “% Inhibition of Plateau … 33 mole %” value came out at 29% and the “Fold Increase in Lag Time … 33 mole %” value was 1 fold.

Consider B9, for which the “% Inhibition of Plateau … 33 mole %” value is approximately 0% and the “Fold Increase in Lag Time … 33 mole %” value is 1.4 fold.

For B3, the “% Inhibition of Plateau … 33 mole %” value amounted to 50% and the “Fold Increase in Lag Time … 33 mole %” value was 2.3 fold.
